Measured values as given in patent publication US20140193915, “COMPOSITIONS AND METHODS FOR CUSTOM SITE-SPECIFIC DNA RECOMBINASES” (Monsanto Technology, LLC, published 2014).
Residue numbers refer to the chain shown, from its start.

T1: sN-TALER IV-3 (synthetic)
T1 chain: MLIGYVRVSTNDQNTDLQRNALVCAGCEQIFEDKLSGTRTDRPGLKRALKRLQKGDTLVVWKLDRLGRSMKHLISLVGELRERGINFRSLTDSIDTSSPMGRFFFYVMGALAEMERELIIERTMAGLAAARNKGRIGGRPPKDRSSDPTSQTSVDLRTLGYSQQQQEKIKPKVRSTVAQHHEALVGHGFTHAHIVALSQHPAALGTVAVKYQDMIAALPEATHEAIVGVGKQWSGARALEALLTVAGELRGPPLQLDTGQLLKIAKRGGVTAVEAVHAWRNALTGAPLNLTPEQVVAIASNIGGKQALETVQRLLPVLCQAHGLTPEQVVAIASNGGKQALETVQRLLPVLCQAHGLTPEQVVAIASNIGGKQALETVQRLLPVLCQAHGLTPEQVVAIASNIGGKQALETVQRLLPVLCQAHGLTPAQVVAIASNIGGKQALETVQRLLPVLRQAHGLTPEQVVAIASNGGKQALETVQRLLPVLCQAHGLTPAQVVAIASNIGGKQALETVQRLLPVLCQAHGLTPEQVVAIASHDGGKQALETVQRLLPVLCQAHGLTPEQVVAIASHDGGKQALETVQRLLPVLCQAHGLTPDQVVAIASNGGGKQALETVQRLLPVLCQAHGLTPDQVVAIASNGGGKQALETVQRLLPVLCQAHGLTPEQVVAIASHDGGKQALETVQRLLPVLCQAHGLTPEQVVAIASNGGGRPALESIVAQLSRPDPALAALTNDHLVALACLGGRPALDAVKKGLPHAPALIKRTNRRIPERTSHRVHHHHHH

T2: sN-TALER IV-2 (GinH106Y-TALE13) (synthetic)
T2 chain: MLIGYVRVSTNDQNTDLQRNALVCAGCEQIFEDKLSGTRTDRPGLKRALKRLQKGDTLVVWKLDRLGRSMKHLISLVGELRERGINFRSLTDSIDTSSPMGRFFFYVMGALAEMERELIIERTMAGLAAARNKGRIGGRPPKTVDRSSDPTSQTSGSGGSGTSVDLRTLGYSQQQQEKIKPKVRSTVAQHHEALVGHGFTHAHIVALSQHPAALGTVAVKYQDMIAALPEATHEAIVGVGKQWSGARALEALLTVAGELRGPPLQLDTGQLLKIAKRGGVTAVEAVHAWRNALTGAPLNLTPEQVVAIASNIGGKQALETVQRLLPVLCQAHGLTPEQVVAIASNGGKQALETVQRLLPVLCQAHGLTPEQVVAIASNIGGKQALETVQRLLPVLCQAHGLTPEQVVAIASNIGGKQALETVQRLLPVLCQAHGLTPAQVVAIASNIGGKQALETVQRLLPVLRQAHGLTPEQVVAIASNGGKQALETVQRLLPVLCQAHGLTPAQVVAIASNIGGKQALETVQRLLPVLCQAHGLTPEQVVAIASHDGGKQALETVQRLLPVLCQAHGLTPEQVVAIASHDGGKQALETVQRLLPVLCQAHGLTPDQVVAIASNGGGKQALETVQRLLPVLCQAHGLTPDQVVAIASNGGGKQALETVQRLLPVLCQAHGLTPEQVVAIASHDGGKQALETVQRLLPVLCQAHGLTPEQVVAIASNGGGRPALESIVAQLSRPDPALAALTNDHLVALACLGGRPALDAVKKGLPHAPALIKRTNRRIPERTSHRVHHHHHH

T3: sN-TALER IV-1 (GinH106Y-TALE13) (synthetic)
T3 chain: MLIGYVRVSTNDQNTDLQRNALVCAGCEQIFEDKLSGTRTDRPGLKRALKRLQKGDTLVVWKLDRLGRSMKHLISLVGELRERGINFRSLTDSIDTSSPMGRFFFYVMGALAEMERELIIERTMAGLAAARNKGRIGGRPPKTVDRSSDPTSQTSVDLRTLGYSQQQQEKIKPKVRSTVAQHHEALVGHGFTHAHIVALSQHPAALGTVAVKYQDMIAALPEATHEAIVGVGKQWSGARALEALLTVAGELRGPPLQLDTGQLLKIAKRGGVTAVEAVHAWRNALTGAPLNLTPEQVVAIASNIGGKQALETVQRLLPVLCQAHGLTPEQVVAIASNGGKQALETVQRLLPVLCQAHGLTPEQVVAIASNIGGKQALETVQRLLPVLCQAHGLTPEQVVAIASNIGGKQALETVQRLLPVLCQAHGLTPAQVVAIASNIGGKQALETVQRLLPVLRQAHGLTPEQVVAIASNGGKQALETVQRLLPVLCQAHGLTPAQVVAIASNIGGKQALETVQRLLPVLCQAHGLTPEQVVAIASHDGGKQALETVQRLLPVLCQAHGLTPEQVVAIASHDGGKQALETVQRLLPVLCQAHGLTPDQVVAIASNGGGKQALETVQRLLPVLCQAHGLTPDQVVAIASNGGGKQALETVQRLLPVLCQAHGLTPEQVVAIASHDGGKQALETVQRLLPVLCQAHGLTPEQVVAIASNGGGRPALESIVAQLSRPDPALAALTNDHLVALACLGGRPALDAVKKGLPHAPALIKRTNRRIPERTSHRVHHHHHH

T4: pN-TALER IV-1-EE2 (GinL7C7-EE2-TALE13) (synthetic)
T4 chain: T3 chain with V6A, D12G, N14S, N20D, K50E, M70V, I94V, Y106H, M108T, M114V

B1: Gin20TALE+12 (dsDNA)
DNA 1: AGAAGGTATTTATATAGGCACACTTATCCAAAACCATGGTTTACAGGACCACACGGTATATAAATACCTTCT
DNA 2: AGAAGGTATTTATATACCGTGTGGTCCTGTAAACCATGGTTTTGGATAAGTGTGCCTATATAAATACCTTCT
B2: R45 (12bp) (dsDNA)
DNA 1: AGAAGGTATTTATATCTCAAACCATGGTTTCACTTATAAATACCTTCT
DNA 2: B2 DNA 1 with T15A, C16G, C18G, C31G, C33G, T34A
B3: R46 (10bp) (dsDNA)
DNA 1: B2 DNA 1 with A19T, T30A
DNA 2: AGAAGGTATTTATAAGTGTAACCATGGTTAGAGATATAAATACCTTCT
B4: R48 (dsDNA)
DNA 1: AGAAGGTATTTATATCCAAAACTATAGTTTACAGTATAAATACCTTCT
DNA 2: AGAAGGTATTTATACTGTAAACTATAGTTTTGGATATAAATACCTTCT

Legend:
Assay in all cases: cell_activity; E. coli
[1] = molecular target: T1, sN-TALER IV-3; conditions: tags: 6-His
Description: (§1) To test for recombination, E. coli DH5alpha cells were co-transformed with different combinations of TALER expression construct and TALER reporter construct pairs (Tables 6 and 7). The N-TALER expression and reporter constructs were in an approximate 1:1 mass ratio during the transformation. The co-transformed bacteria were plated on media with chloramphenicol, kanamycin, and X-gal then incubated at 37° C. for 18 to 36 hours. Control samples consisted of transformations using the reporter construct alone. Control transformants were similarly plated. The bacterial transformation protocol was either heat shock or electroporation per standard molecular biology techniques.

[2] = molecular target: T2, sN-TALER IV-2 (GinH106Y-TALE13); conditions: tags: 6-His
Description: as §1

[3] = molecular target: T3, sN-TALER IV-1 (GinH106Y-TALE13); conditions: tags: 6-His; chain copies: 2 per site, tetramer in synapsis (stated)
Description: as §1

[4] = molecular target: T4, pN-TALER IV-1-EE2 (GinL7C7-EE2-TALE13); conditions: tags: 6-His
Description: as §1
Two additional N-TALERs, based on N-TALER IV-1, were constructed wherein the GinH106Y recombinase catalytic domain was replaced with either the GinL7C7-EE2 catalytic domain or the GinL7C7-EE3 permissive recombinase catalytic domain. These N-TALERs were labeled pN-TALER IV-1-EE2 (SEQ ID NO:41) and pN-TALER IV-1-EE3 (SEQ ID NO:45), respectively. pN-TALER IV-1-EE2 was tested in combination with seventeen N-TALER reporter constructs and pN-TALER IV-1-EE3 was tested with three reporter constructs (Table 10).

[5] = molecular target: T4, pN-TALER IV-1-EE2 (GinL7C7-EE2-TALE13); conditions: tags: 6-His
Text: (§2) To determine how much of the Gin20 sequence is required for recombination when the central sequence is maintained at a permitted length, N-TALER reporters were generated with a 20 bp recombinase central sequence between the TALE binding sites, where either the central 12 bp, or the central 10 bp, or the central 8 bp of the recombinase core sequence were held constant, and the remaining nucleotides were different from the Gin sequence. The N-TALER reporter with 12 bp was designated R45, the N-TALER reporter with 10 bp was designated R46, and the N-TALER reporter with 8 bp was designated R47. A N-TALER reporter with a 10 bp site 1 and a 12 bp site 2 was designated R46B, and a N-TALER reporter with a T and an A flanking the central AT di-nucleotide was designated R48 (see Table 33). The various reporters, including the pSC101 Gin20TALE13+0 were co-transformed with either sN-TALER-IV-1 or pN-TALER-IV-1 and recombination, as determined by colony color, was scored (Table 33). For purposes of comparison, the GinE site that was used in the generation of the GinL7C7-EE2 recombinase domain (Gersbach et al., 2010) was also included.
(§3) To confirm that white colonies resulted from recombination, the colonies were analyzed by colony PCR and sequencing of the PCR product. For the reporter that retained 12 bp from the Gin site, 8 of 8 colonies analyzed had the predicted recombination product for both the sN-TALER-IV-1 chimera and the pN-TALER-IV-1chimera (16 colonies total analyzed, 8 each). Likewise, for the reporter that retained 8 bp from the Gin site co-transformed with the pN-TALER-IV-1 chimera, 14 of 14 colonies analyzed had the predicted recombination product.

[6] = molecular target: T3, sN-TALER IV-1 (GinH106Y-TALE13); conditions: tags: 6-His; chain copies: 2 per site, tetramer in synapsis (stated)
Text: as §2, §3

| Binder | activity [1] | activity [2] | activity [3] | activity [4] | activity [5] | activity [6] |
| --- | --- | --- | --- | --- | --- | --- |
| B1 | 1 score | 1 score | 2 score | 2 score | – | – |
| B2 | – | – | – | – | 1 score | 1.5 score |
| B3 | – | – | – | – | 1.5 score | 4.5 score |
| B4 | – | – | – | – | 1.5 score | 4.5 score |
